# US20240360217A1
# Experiments:
# [1] = molecular target: human PD-L1 on tumor cells (human) (UniProt Q9NZQ7); assay: FACS staining of HCT116 cells with the control antibody; triplicates
# [2] = molecular target: human PD-L1 on tumor cells (human) (UniProt Q9NZQ7); assay: FACS staining of MDA-MB-231 cells with the control antibody; triplicates
# human PD-L1 on tumor cells (human), sequence (Q9NZQ7 19-290 limits assumed): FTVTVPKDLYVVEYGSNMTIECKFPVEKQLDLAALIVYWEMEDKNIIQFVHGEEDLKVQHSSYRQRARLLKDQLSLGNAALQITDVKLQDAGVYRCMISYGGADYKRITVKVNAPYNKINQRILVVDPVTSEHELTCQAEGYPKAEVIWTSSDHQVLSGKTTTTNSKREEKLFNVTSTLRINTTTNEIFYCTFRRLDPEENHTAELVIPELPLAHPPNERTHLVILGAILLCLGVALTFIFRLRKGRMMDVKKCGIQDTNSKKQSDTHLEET
substance,measurement,setting,value
anti-PD-L1 RG7446 MPDL3280A (antibody),PD-L1 (MFI),[1],10900 MFI
same,PD-L1 (MFI),[2],74600 MFI
